Measured values reported in US20260049138A1 (Chugai, published 2026).
Residue numbers refer to the chain shown, from its start. Names may count otherwise. Blank lines part the entries; values can stand above or below the binder they belong to.

Target: T1, CD3ε homodimer protein (human, UniProt P07766 23-126, limits assumed, sulfo-tag or biotin label in the ECL assays; amine-coupled to the chip in SPR)
T1 construct: also called human CD3ε homodimer protein; CD3 (CD3ε)
Assay: SPR Biacore T200; CD3ε homodimer on CM4 chip;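 also: Single-residue variant antibodies injected as analyte over CD3ε homodimer immobilized by amine coupling, run at 25 °C in HBS-EP+ buffer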

T1 sequence (P07766 23-126 limits assumed): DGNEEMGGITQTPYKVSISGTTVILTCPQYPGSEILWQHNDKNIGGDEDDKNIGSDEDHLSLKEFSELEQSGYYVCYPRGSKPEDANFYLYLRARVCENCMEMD

ratio of amounts bound Z=Y/X (altered form / CE115HA000): 1.13
B1: CE115HA000 A99L one-arm antibody (antibody, human IgG1, kappa, L234A L235A, N297A, name in Kabat numbering)
heavy: QVQLVESGGGVVQPGRSLRLSCAASGFTFSNAWMHWVRQAPGKGLEWVAQIKAKSNNYATYYAESVKGRFTISRDDSKNSLYLQMNSLKTEDTAVYYCRYVHYGLYYGVDAWGQGTTVTVSSASTKGPSVFPLAPSSKSTSGGTAALGCLVKDYFPEPVTVSWNSGALTSGVHTFPAVLQSSGLYSLSSVVTVPSSSLGTQTYICNVNHKPSNTKVDKKVEPKSCDKTHTCPPCPAPEAAGGPSVFLFPPKPKDTLMISRTPEVTCVVVDVSHEDPEVKFNWYVDGVEVHNAKTKPREEQYASTYRVVSVLTVLHQDWLNGKEYKCKVSNKALPAPIEKTISKAKGQPREPQVYTLPPSRCELTKNQVSLSCAVKGFYPSDIAVEWESNGQPENNYKTTPPVLDSDGSFFLVSKLTVDKSRWQQGNVFSCSVMHEALHNHYTQKSLSLSPDYKDDDDK
chain: EPKSSDKTHTCPPCPAPELLGGPSVFLFPPKPKDTLMISRTPEVTCVVVDVSHEDPEVKFNWYVDGVEVHNAKTKPREEQYNSTYRVVSVLTVLHQDWLNGKEYKCKVSNKALPAPIEKTISKAKGQPREPQVCTLPPSRDELTKNQVSLWCLVKGFYPSDIAVEWESNGQPENNYKTTPPVLDSDGSFFLYSKLTVDKSRWQQGNVFSCSVMHEALHNRYTQKSLSLSP
light: DIVMTQSPLSLPVTPGEPASISCRSSQSLVHSNRNTYLHWYQQKPGQAPRLLIYKVSNRFSGVPDRFSGSGSGTDFTLKISRVEAEDVGVYYCGQGTQVPYTFGQGTKLEIKRTVAAPSVFIFPPSDEQLKSGTASVVCLLNNFYPREAKVQWKVDNALQSGNSQESVTEQDSKDSTYSLSSTLTLSKADYEKHKVYACEVTHQGLSSPVTKSFNRGEC

ratio of amounts bound Z=Y/X (altered form / CE115HA000): 1.16
B2: CE115HA000 D101S one-arm antibody (antibody, human IgG1, kappa, L234A L235A, N297A, name in Kabat numbering)
heavy: B1 heavy with L105A, D110S
chain: B1 chain
light: B1 light

ratio of amounts bound Z=Y/X (altered form / CE115HA000): 1.04
B3: CE115HA000 D73R one-arm antibody (antibody, human IgG1, kappa, L234A L235A, N297A, name in Kabat numbering)
heavy: B1 heavy with D76R, L105A
chain: B1 chain
light: B1 light

ratio of amounts bound Z=Y/X (altered form / CE115HA000): 1.43
B4: CE115HA000 A102V one-arm antibody (antibody, human IgG1, kappa, L234A L235A, N297A, name in Kabat numbering)
heavy: B1 heavy with L105A, A111V
chain: B1 chain
light: B1 light

ratio of amounts bound Z=Y/X (altered form / CE115HA000): 2.02
B5: CE115HA000 D101N one-arm antibody (antibody, human IgG1, kappa, L234A L235A, N297A, name in Kabat numbering)
heavy: B1 heavy with L105A, D110N
chain: B1 chain
light: B1 light

ratio of amounts bound Z=Y/X (altered form / CE115HA000): 0.24
B6: CE115HA000 D101R one-arm antibody (antibody, human IgG1, kappa, L234A L235A, N297A, name in Kabat numbering)
heavy: B1 heavy with L105A, D110R
chain: B1 chain
light: B1 light

ratio of amounts bound Z=Y/X (altered form / CE115HA000): 1.59
B7: CE115HA000 A99Y one-arm antibody (antibody, human IgG1, kappa, L234A L235A, N297A, name in Kabat numbering)
heavy: B1 heavy with L105Y
chain: B1 chain
light: B1 light

ratio of amounts bound Z=Y/X (altered form / CE115HA000): 1.21
B8: CE115HA000 D101H one-arm antibody (antibody, human IgG1, kappa, L234A L235A, N297A, name in Kabat numbering)
heavy: B1 heavy with L105A, D110H
chain: B1 chain
light: B1 light

ratio of amounts bound Z=Y/X (altered form / CE115HA000): 1.43
B9: CE115HA000 D72V one-arm antibody (antibody, human IgG1, kappa, L234A L235A, N297A, name in Kabat numbering)
heavy: B1 heavy with D75V, L105A
chain: B1 chain
light: B1 light

ratio of amounts bound Z=Y/X (altered form / CE115HA000): 0.83
B10: CE115HA000 D73A one-arm antibody (antibody, human IgG1, kappa, L234A L235A, N297A, name in Kabat numbering)
heavy: B1 heavy with D76A, L105A
chain: B1 chain
light: B1 light

ratio of amounts bound Z=Y/X (altered form / CE115HA000): 0.62
B11: CE115HA000 D101L one-arm antibody (antibody, human IgG1, kappa, L234A L235A, N297A, name in Kabat numbering)
heavy: B1 heavy with L105A, D110L
chain: B1 chain
light: B1 light

ratio of amounts bound Z=Y/X (altered form / CE115HA000): 1.48
B12: CE115HA000 A102I one-arm antibody (antibody, human IgG1, kappa, L234A L235A, N297A, name in Kabat numbering)
heavy: B1 heavy with L105A, A111I
chain: B1 chain
light: B1 light

ratio of amounts bound Z=Y/X (altered form / CE115HA000): 0.75
B13: CE115HA000 D101F one-arm antibody (antibody, human IgG1, kappa, L234A L235A, N297A, name in Kabat numbering)
heavy: B1 heavy with L105A, D110F
chain: B1 chain
light: B1 light

ratio of amounts bound Z=Y/X (altered form / CE115HA000): 1.07
B14: CE115HA000 D73G one-arm antibody (antibody, human IgG1, kappa, L234A L235A, N297A, name in Kabat numbering)
heavy: B1 heavy with D76G, L105A
chain: B1 chain
light: B1 light

ratio of amounts bound Z=Y/X (altered form / CE115HA000): 0.91
B15: CE115HA000 A99Q one-arm antibody (antibody, human IgG1, kappa, L234A L235A, N297A, name in Kabat numbering)
heavy: B1 heavy with L105Q
chain: B1 chain
light: B1 light

ratio of amounts bound Z=Y/X (altered form / CE115HA000): 0.2
B16: CE115HA000 D101P one-arm antibody (antibody, human IgG1, kappa, L234A L235A, N297A, name in Kabat numbering)
heavy: B1 heavy with L105A, D110P
chain: B1 chain
light: B1 light

ratio of amounts bound Z=Y/X (altered form / CE115HA000): 0.94
B17: CE115HA000 D73N one-arm antibody (antibody, human IgG1, kappa, L234A L235A, N297A, name in Kabat numbering)
heavy: B1 heavy with D76N, L105A
chain: B1 chain
light: B1 light

ratio of amounts bound Z=Y/X (altered form / CE115HA000): 1.2
B18: CE115HA000 D101M one-arm antibody (antibody, human IgG1, kappa, L234A L235A, N297A, name in Kabat numbering)
heavy: B1 heavy with L105A, D110M
chain: B1 chain
light: B1 light

ratio of amounts bound Z=Y/X (altered form / CE115HA000): 1.38
B19: CE115HA000 D101G one-arm antibody (antibody, human IgG1, kappa, L234A L235A, N297A, name in Kabat numbering)
heavy: B1 heavy with L105A, D110G
chain: B1 chain
light: B1 light

ratio of amounts bound Z=Y/X (altered form / CE115HA000): 0.14
B20: CE115HA000 A102P one-arm antibody (antibody, human IgG1, kappa, L234A L235A, N297A, name in Kabat numbering)
heavy: B1 heavy with L105A, A111P
chain: B1 chain
light: B1 light

ratio of amounts bound Z=Y/X (altered form / CE115HA000): 2.35
B21: CE115HA000 D101Q one-arm antibody (antibody, human IgG1, kappa, L234A L235A, N297A, name in Kabat numbering)
heavy: B1 heavy with L105A, D110Q
chain: B1 chain
light: B1 light

ratio of amounts bound Z=Y/X (altered form / CE115HA000): 1.18
B22: CE115HA000 D101I one-arm antibody (antibody, human IgG1, kappa, L234A L235A, N297A, name in Kabat numbering)
heavy: B1 heavy with L105A, D110I
chain: B1 chain
light: B1 light

ratio of amounts bound Z=Y/X (altered form / CE115HA000): 1.26
B23: CE115HA000 D101A one-arm antibody (antibody, human IgG1, kappa, L234A L235A, N297A, name in Kabat numbering)
heavy: B1 heavy with L105A, D110A
chain: B1 chain
light: B1 light

ratio of amounts bound Z=Y/X (altered form / CE115HA000): 1.41
B24: CE115HA000 D72A one-arm antibody (antibody, human IgG1, kappa, L234A L235A, N297A, name in Kabat numbering)
heavy: B1 heavy with D75A, L105A
chain: B1 chain
light: B1 light

ratio of amounts bound Z=Y/X (altered form / CE115HA000): 0.63
B25: CE115HA000 D101K one-arm antibody (antibody, human IgG1, kappa, L234A L235A, N297A, name in Kabat numbering)
heavy: B1 heavy with L105A, D110K
chain: B1 chain
light: B1 light

ratio of amounts bound Z=Y/X (altered form / CE115HA000): 0.63
B26: CE115HA000 D73T one-arm antibody (antibody, human IgG1, kappa, L234A L235A, N297A, name in Kabat numbering)
heavy: B1 heavy with D76T, L105A
chain: B1 chain
light: B1 light

ratio of amounts bound Z=Y/X (altered form / CE115HA000): 0.84
B27: CE115HA000 A99T one-arm antibody (antibody, human IgG1, kappa, L234A L235A, N297A, name in Kabat numbering)
heavy: B1 heavy with L105T
chain: B1 chain
light: B1 light

ratio of amounts bound Z=Y/X (altered form / CE115HA000): 1.05
B28: CE115HA000 D72E one-arm antibody (antibody, human IgG1, kappa, L234A L235A, N297A, name in Kabat numbering)
heavy: B1 heavy with D75E, L105A
chain: B1 chain
light: B1 light

ratio of amounts bound Z=Y/X (altered form / CE115HA000): 0.73
B29: CE115HA000 D73E one-arm antibody (antibody, human IgG1, kappa, L234A L235A, N297A, name in Kabat numbering)
heavy: B1 heavy with D76E, L105A
chain: B1 chain
light: B1 light

ratio of amounts bound Z=Y/X (altered form / CE115HA000): 0.87
B30: CE115HA000 D73K one-arm antibody (antibody, human IgG1, kappa, L234A L235A, N297A, name in Kabat numbering)
heavy: B1 heavy with D76K, L105A
chain: B1 chain
light: B1 light

ratio of amounts bound Z=Y/X (altered form / CE115HA000): 0.82
B31: CE115HA000 A99S one-arm antibody (antibody, human IgG1, kappa, L234A L235A, N297A, name in Kabat numbering)
heavy: B1 heavy with L105S
chain: B1 chain
light: B1 light

ratio of amounts bound Z=Y/X (altered form / CE115HA000): 0.91
B32: CE115HA000 A102Y one-arm antibody (antibody, human IgG1, kappa, L234A L235A, N297A, name in Kabat numbering)
heavy: B1 heavy with L105A, A111Y
chain: B1 chain
light: B1 light
